Measurements as given in patent publication US5717058A, “Peptide inhibitors of tax-dependent transcription” (priority 1994, dated 1998).
“Also recorded” adds a separate entry of the source. No end group written: not given here.

Columns and labels:
[1] = solubility in aqueous solution; format: physicochemical
Tax-CREB interaction = target: T1, Tax-CREB interaction (Homo sapiens, UniProt P16220); test: EMSA, inhibition of Tax-mediated enhancement of CREB binding to HTLV-I 21 bp repeat DNA; settings: for fold enhancement: 200 nM Tax
T1 construct: made in house
T1 sequence (P16220 whole entry): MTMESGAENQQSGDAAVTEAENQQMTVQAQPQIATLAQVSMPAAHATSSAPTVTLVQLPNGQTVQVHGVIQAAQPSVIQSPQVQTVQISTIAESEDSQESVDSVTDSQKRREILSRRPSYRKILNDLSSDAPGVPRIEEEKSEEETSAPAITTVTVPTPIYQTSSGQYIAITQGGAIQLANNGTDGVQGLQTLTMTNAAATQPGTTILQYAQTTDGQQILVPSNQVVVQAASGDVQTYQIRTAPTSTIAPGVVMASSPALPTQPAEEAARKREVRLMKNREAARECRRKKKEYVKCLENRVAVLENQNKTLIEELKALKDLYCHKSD
Excerpt: The HTLV-I transactivator Tax enhances the binding of CREB to the 21 bp repeat sequences contained in the HTLV-I LTR (Zhao and Giam (1992) PNAS 89:7070-7074; Franklin et al. 1993 J. Biol. Chem. 268:21225-21231; Wagner and Green, 1993 Science 262:395-399). We are testing whether peptides representing portions of the primary sequence of Tax can disrupt the Tax-CREB interaction as measured by EMSA.
Purified recombinant CREB was isolated as previously published (Franklin et al. 1993 J. Biol. Chem. 268:21225-21231) and active DNA-binding CREB was purified by heparin-agarose chromatography. Purified recombinant TaxH6 (contains a six-histidine purification tag at the C-terminus of Tax) was isolated an purified as previously published (Zhao and Giam (1991) PNAS 88:12445-11449; Franklin et al. 1993 J. Biol. Chem. 268:21225-21231). Peptides were synthesized and purified as described in Example 1. The third HTLV-I 21 bp repeat (Seq. ID. No. 43) was cloned into the Bgl II site of pUC19. The 70 bp DNA probe fragment was excised with Kpn I and Hind III, phosphatased and gel purified.
EMSA reactions contained 0.1-2.0 nM [^32 P]end-labeled double stranded site 3 probe, 5-50 ng poly (dI-dC) carrier DNA, 1-5 nM purified recombinant CREB, 100-200 nM purified recombinant TaxH6, 15 mM HEPES pH 8.0, 1.5% DMSO, 25 mM Tris-HCl pH 7.9, 6.25 mM MgCl2, 0.5 mM EDTA, 0.5 mM DTT, 60-120 mM KCl, and 10% (v/v) glycerol, and candidate peptide inhibitors in a 20 μl reaction volume. CREB was incubated with the peptides or mock buffer (5% DMSO 50 mM HEPES pH 8.0) for 2-5 min. at room temp. then TaxH6 and DNA mixture were added. The complete reaction mixture was incubated 10-20 min. further at room temp. then analyzed on 5% non-denaturing polyacrylamide gels (49:1, acrylamide:N,N-methylene bisacrylamide). The electrophoresis buffer contained 0.04M Tris, 0.306M glycine, pH 8.5, and 0.1% Nonidet P-40. Gels were dried were autoradiographed. Relative amounts of protein-DNA complex were quantitated using Phosphor Image Analysis.
The primary amino acid sequence of Tax was divided into 29 peptides 20 amino adds in length with an overlap of eight amino acids (see Detailed Description of the Invention and Example 1). The number of the first amino acid in each peptide corresponds to its position in the primary sequence of Tax. Six peptides were tested by EMSA for inhibition of Tax-mediated enhancement. The percentage of radiolabeled DNA probe shifted into protein-DNA complexes in each reaction was quantitated by phosphorimage analysis. Fold enhancement was calculated by dividing the amount of probe shifted in each reaction by the amount of probe shifted in reactions containing CREB, DNA and mock peptide buffer (Table 1). Reactions in Table 1 contained 0.5 nM radiolabeled DNA probe, 10 ng poly dIdC, 1.25% v/v DMSO, 12.5 mM HEPES pH 8.0, 25 mM Tris pH 7.9, 6.25 mM MgCl2, 75 mM KCl, 0.5 mM EDTA, 0.5 mM DTT, 10% v/v glycerol, and CREB, Tax and peptide as indicated in a final volume of 20 μL.
Reactions in Table 2 contained 0.5 nM radiolabeled DNA probe, 10 ng poly dIdC, 1.75% v/v DMSO, 17.5 mM HEPES pH 8.0, 25 mM Tris pH 7.9, 6.25 mM MgCl2, 75 mM KCl, 0.5 mM EDTA, 0.5 mM DTT, 10% v/v glycerol, and CREB, Tax and peptide as indicated in a final volume of 20 μL. Protein-DNA complexes were quantitated by phosphorimage analysis. Fold enhancement was calculated by dividing the amount of complex formed in each reaction by the amount of complex formed in a reaction containing CREB, DNA, mock Tax buffer and mock peptide buffer.
Reactions in Table 3 contained 0.5 nM radiolabeled DNA probe, 10 ng poly dIdC, 1.75% v/v DMSO, 17.5 mM HEPES pH 8.0, 25 mM Tris pH 7.9, 6.25 mM MgCl2, 75 mM KCl, 0.5 mM EDTA, 0.5 mM DTT, 10% v/v glycerol, and CREB, Tax and peptide as indicated in a final volume of 20 μL. Amount of complex was quantitated by densitometry (PDI). […]

## CC(C)C[C@H](NC(=O)[C@H](CC(C)C)NC(=O)[C@H](Cc1c[nH]cn1)NC(=O)[C@H](CC(C)C)NC(=O)[C@H](CO)NC(=O)[C@H](Cc1c[nH]cn1)NC(=O)[C@H](Cc1ccccc1)NC(=O)[C@H](CO)NC(=O)CNC(=O)CNC(=O)[C@H](CCC(=O)O)NC(=O)[C@@H](N)CCC(=O)O)C(=O)N[C@@H](Cc1ccccc1)C(=O)N[C@@H](CCC(=O)O)C(=O)N[C@@H](CCC(=O)O)C(=O)N[C@@H](CCC(=O)O)C(N)=O [Seq ID No. 56, EEGGSFHSLHLLFEEE]
[1]
  solubility in aqueous solution, in words: more soluble

## CC(C)C[C@H](NC(=O)[C@H](CC(C)C)NC(=O)[C@H](Cc1c[nH]cn1)NC(=O)[C@H](CC(C)C)NC(=O)[C@H](CO)NC(=O)[C@H](Cc1c[nH]cn1)NC(=O)[C@H](Cc1ccccc1)NC(=O)[C@H](CO)NC(=O)CNC(=O)CNC(=O)[C@H](CCC(=O)O)NC(=O)[C@@H](N)CCC(=O)O)C(=O)N[C@@H](Cc1ccccc1)C(=O)N[C@@H](CCC(=O)O)C(N)=O [Seq ID No. 55, EEGGSFHSLHLLFE]
[1]
  solubility in aqueous solution, in words: more soluble

## FLSEFLHSHL [SCM2, reference compound]
Tax-CREB interaction; Table 8, SCM2 0.75 μM, 2.3 nM CREB, Tax without peptide 17.0
  fold enhancement: 17.9 fold
Tax-CREB interaction; Table 8, SCM2 1.50 μM, 2.3 nM CREB, Tax without peptide 17.0
  fold enhancement: 17.8 fold
Tax-CREB interaction; Table 8, SCM2 7.50 μM, 2.3 nM CREB, Tax without peptide 17.0
  fold enhancement: 14.5 fold
Tax-CREB interaction; Table 8, SCM2 15.00 μM, 2.3 nM CREB, Tax without peptide 17.0
  fold enhancement: 9.7 fold
Tax-CREB interaction; Table 8, SCM2 75.00 μM, 2.3 nM CREB, Tax without peptide 17.0
  fold enhancement: 3.3 fold
Tax-CREB interaction; Table 8, SCM2 150.00 μM, 2.3 nM CREB, Tax without peptide 17.0
  fold enhancement: 1.1 fold

## HSLHLLFEEY-NH2 [TX303-313, HSLHLLFEEY]
[1]
  solubility in aqueous solution, in words: sparingly soluble

## CC(C)C[C@H](NC(=O)[C@H](CC(C)C)NC(=O)[C@H](Cc1c[nH]cn1)NC(=O)[C@H](CC(C)C)NC(=O)[C@H](CO)NC(=O)[C@H](Cc1c[nH]cn1)NC(=O)[C@H](Cc1ccccc1)NC(=O)[C@@H](N)CO)C(=O)N[C@@H](Cc1ccccc1)C(=O)N[C@@H](CCC(=O)O)C(=O)N[C@@H](CCC(=O)O)C(=O)N[C@@H](CCC(=O)O)C(N)=O [Seq ID No. 54, SFHSLHLLFEEE]
[1]
  solubility in aqueous solution, in words: more soluble

## TX313: 20 amino acid Tax peptide beginning at amino acid 313, overlaps TX301 by 8 amino acids
Tax-CREB interaction; EMSA, CREB + Tax + peptide
  effect on Tax-mediated enhancement of CREB binding to DNA (complex formation), in words: slight enhancement of complex formation at some concentrations
Tax-CREB interaction; Table 4, TX313 35 μM, 3.4 nM CREB, Tax without peptide 4.48, densitometry
  fold enhancement: 5.16 fold
Tax-CREB interaction; Table 4, TX313 70 μM, 3.4 nM CREB, Tax without peptide 4.48, densitometry
  fold enhancement: 5.60 fold
Tax-CREB interaction; Table 4, TX313 140 μM, 3.4 nM CREB, Tax without peptide 4.48, densitometry
  fold enhancement: 4.49 fold
Tax-CREB interaction; titration in EMSA
  dose dependence of the effect on Tax-mediated enhancement, in words: did not have a dose dependent affect; also recorded: no dose dependence

## CC(C)C[C@H](NC(=O)[C@H](CC(C)C)NC(=O)[C@H](Cc1c[nH]cn1)NC(=O)[C@H](CC(C)C)NC(=O)[C@H](CO)NC(=O)[C@H](Cc1c[nH]cn1)NC(=O)[C@H](Cc1ccccc1)NC(=O)[C@@H](N)CO)C(=O)N[C@@H](Cc1ccccc1)C(=O)N[C@@H](CCC(=O)O)C(N)=O [TX301-310, SFHSLHLLFE]
[1]
  solubility in aqueous solution, in words: sparingly soluble

## CC[C@H](C)[C@H](NC(=O)[C@@H]1CCCN1C(=O)[C@@H](NC(=O)[C@H](CC(N)=O)NC(=O)[C@@H](NC(=O)[C@H](Cc1ccc(O)cc1)NC(=O)[C@H](CCC(=O)O)NC(=O)[C@H](CCC(=O)O)NC(=O)[C@H](Cc1ccccc1)NC(=O)[C@H](CC(C)C)NC(=O)[C@H](CC(C)C)NC(=O)[C@H](Cc1c[nH]cn1)NC(=O)[C@H](CC(C)C)NC(=O)[C@H](CO)NC(=O)[C@H](Cc1c[nH]cn1)NC(=O)[C@H](Cc1ccccc1)NC(=O)[C@@H](N)CO)[C@@H](C)O)[C@@H](C)CC)C(=O)N[C@@H](CO)C(=O)N[C@@H](CC(C)C)C(=O)N[C@@H](CC(C)C)C(N)=O [TX301]
[1]
  solubility in aqueous solution, in words: limited solubility in aqueous solutions; also recorded: sparingly soluble
